# From publication PMC12273574, “Biochemical and structural characterization of a GNAT superfamily protein acetyltransferase from Helicobacter pylori” (The Journal of Biological Chemistry, 2025)
# Assays:
# Assay in all cases: purified protein
# purified protein [1] = substrate: CC(=O)NCCCC[C@H](N)C(=O)O; settings: 14C-ACO, 800 nM enzyme; Nα-amino group acetylated; unit μM as printed beside mM for the Nα-acetyl isomer
# purified protein [2] = substrate: CC(=O)SCCNC(=O)CCNC(=O)[C@H](O)C(C)(C)COP(=O)(O)OP(=O)(O)OC[C@H]1O[C@@H](n2cnc3c(N)ncnc32)[C@H](O)[C@@H]1OP(=O)(O)O; settings: 50 mM lysine, 5-50 μM 14C-ACO, 800 nM enzyme, pH 8.0, 30 °C; labelled compound; pH 8.0; 30.0 °C
# purified protein [3] = substrate: NCCCC[C@H](N)C(=O)O; settings: 50 μM 14C-ACO, 1-50 mM lysine, 800 nM enzyme, pH 8.0, 30 °C; pH 8.0; 30.0 °C
protein,measurement,setting,value
HP0935 (Helicobacter pylori 26695) (protein) MTIKVFSPKYPTELEEFYAERIADNPLGFIQRLDLLPSISGFVQKLREHGGEFFEMREGNKLIGICGLNPINQTEAELCKFHINSAYQSQGLGQKLYESVEKYAFIKGYTKISLHVSKSQIKACNLYQKLGFVHIKEEDCVVELGEETLIFPTLFMEKILS,Km,purified protein [1],26.71 µM
same,Km,purified protein [2],21.44 µM
same,Km,purified protein [3],31310 µM
